Reference: paper doi:10.1101/2023.01.23.525191
Values joined by “and” are separate entries in the source; they are usually repeats but may differ in a detail not shown here. Equal values may be shown once.

How the values were obtained:
[1] = target: recombinant untagged rat RBPMS-A ΔC20 (rat); assay: AUC
[2] = target: recombinant untagged rat RBPMS-A ΔC20 (rat); assay: SEC
[3] = target: recombinant untagged rat RBPMS-A ΔC20 (rat); assay: cross-linking
[4] = target: recombinant untagged rat RBPMS-A ΔC20 (rat); assay: AUC; remark: listed apart in the source

## recombinant untagged rat RBPMS-A ΔC20 (domain or fragment)
[1]
  stoichiometry N: 2
[2]
  stoichiometry N: 2
[3]
  stoichiometry N: 3 and 4
[4]
  stoichiometry N: 2 and 3
